Reference: patent US20250382367A1 (published 2025)

Columns and labels:
[1] = target: T1, biotinylated CD150 protein (UniProt Q13291 21-237, labeled with biotin, sites not stated); assay: BLI
T1 chain: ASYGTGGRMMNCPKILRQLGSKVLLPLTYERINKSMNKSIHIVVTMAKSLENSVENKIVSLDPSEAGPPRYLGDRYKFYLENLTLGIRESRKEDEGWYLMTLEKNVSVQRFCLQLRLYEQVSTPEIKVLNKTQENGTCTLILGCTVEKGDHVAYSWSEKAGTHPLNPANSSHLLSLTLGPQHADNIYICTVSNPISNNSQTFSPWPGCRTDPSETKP

[2] = target: CD150 protein (extracellular domain, hFc fragment cleaved off with TEV protease) (UniProt Q13291); assay: non-competitive ELISA; CD150 coated at 10 ug/mL, nanobody Fc fusion diluted 1:4 in series, HRP anti-IgG1 Fc detection

B1: nanobody Fc fusion protein (anti-CD150 nanobody fused with human IgG1 Fc) (Fc fusion)
chain: QVQLVESGGGLVQAGGSLRLSCAASGRAFSDYAVGWFRQAPGREREFVATISWSGFSTYYADSVKGRFTISRDNAEKTVTLQMNSLKPEDTAVYYCAADRNGTSFPYIRRDEYDYWGQGTQVT
Question: B1 was tested. Which Kd [1] did it give?
Answer: The Kd was 20.1 nM.

Question: And the EC50 [2]?
Answer: Its EC50 is 0.0333 µg/mL.
